The target in one assay is human recombinant biotinylated FcγRIIb (CD32b) (human) (UniProt P31994). Kind of assay: BLI. For orientation: BLI is a label-free optical method that tracks binding on a fibre tip over time.
human recombinant biotinylated FcγRIIb (CD32b) (human), sequence (P31994 43-217): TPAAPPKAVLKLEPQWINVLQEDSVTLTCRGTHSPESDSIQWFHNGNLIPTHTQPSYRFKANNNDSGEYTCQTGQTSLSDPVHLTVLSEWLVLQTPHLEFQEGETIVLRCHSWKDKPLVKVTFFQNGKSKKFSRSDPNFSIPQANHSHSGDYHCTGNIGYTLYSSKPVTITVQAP
recombinant anti-Fel d 1 monoclonal antibody F127, human IgG4 format, sequence (P01861 whole entry, looked up): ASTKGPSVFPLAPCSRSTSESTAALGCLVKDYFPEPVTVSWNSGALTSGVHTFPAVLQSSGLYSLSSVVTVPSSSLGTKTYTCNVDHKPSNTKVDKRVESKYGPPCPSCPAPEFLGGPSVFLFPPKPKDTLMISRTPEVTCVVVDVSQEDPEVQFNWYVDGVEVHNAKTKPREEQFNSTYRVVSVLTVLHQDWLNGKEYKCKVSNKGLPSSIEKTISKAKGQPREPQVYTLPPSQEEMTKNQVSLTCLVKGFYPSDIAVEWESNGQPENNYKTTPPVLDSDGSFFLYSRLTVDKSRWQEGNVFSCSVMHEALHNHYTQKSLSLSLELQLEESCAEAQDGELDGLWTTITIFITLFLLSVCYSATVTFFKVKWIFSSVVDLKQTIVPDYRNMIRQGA
native human IgG4, sequence (P01861 whole entry, looked up): as above
recombinant anti-Fel d 1 monoclonal antibody G078, human IgG4 format, sequence (P01861 whole entry, looked up): as above
recombinant anti-Fel d 1 monoclonal antibody A044, human IgG4 format, sequence (P01861 whole entry, looked up): as above
Turning to “recombinant anti-Fel d 1 monoclonal antibody F127, human IgG4 format (from UniProt P01861)”, the off-rate constant (koff) – broadly, the rate constant with which the complex falls apart – was found to be 0.00126 s⁻¹.

For a further assay the target is unchanged. The assay can be described thus: BLI. This is another data set of the same source.
Turning to native human IgG4 (from UniProt P01861), the Kd – broadly, a measure of binding affinity in units of concentration – worked out at 31 nM and the koff came out at 0.002 s⁻¹. As to “recombinant anti-Fel d 1 monoclonal antibody A044, human IgG1 format (from UniProt P01857)”, the Kd was found to be 18 nM.

“recombinant anti-Fel d 1 monoclonal antibody A044, human IgG4 format (from UniProt P01861)”: the Kd is 18 nM and the koff was determined as 0.00081 s⁻¹. “recombinant anti-Fel d 1 monoclonal antibody F127, human IgG1 format (from UniProt P01857)”: the Kd is 27 nM. Take “recombinant anti-Fel d 1 monoclonal antibody F127, human IgG4 format (from UniProt P01861)”: the Kd came out at 27 nM and the koff stood at 0.0014 s⁻¹. Taken in the same sequence, the figures for “recombinant anti-Fel d 1 monoclonal antibody G078, human IgG4 format (from UniProt P01861)” were 34 nM and 0.0016 s⁻¹.

The record behind these values is article PMC9582512.
